From patent US20120082667A1

Biological target: A beta oligomer prepared from synthetic A beta1-40 (HCl form), 0.1 mg/ml in PBS, incubated at 37 degrees C for one hour (UniProt P05067)
Assay: SPR, Biacore 3000, A beta1-40 oligomer on CM5 chip, antibody as analyte at five concentrations

Substance: Anti-A beta antibody 6E10 (Covance Immuno-Technologies)
- Kd: 2.91 nM
- koff: 0.000168 s⁻¹
- kon: 57800 M⁻¹ s⁻¹
